Like-named read-outs stand apart in the source and are kept apart here. Blank lines part the entries; values can stand above or below the substance they belong to.
Columns and labels:
[1] = target: H3KC36me3 nucleosomes (recombinant MLA nucleosomes reconstituted on 601 DNA) (Drosophila) (UniProt P02299); assay: native gel or EMSA; 1.5 or 3 pmol reconstituted nucleosome with 0, 0.5, 1, 2 and 3 molar equivalents of glutathione agarose purified GST-PWWP protein; 0.2X TBE, 4°C, native 5% gel, ethidium bromide; band densities fitted to a 2:1 model
[2] = tested on: GST-PSIP1-PWWP (human); assay: EMSA; settings: histone H3KC36me3 (methyl-lysine analogue); EMSA: 0.2X TBE, 4 C, 1.5 or 3 pmol nucleosome in 8 uL, up to 3 molar equivalents of protein, native 5% gel; NMR: 293 K (DNA titration), 308 K (nucleosome …)
[3] = tested on: PSIP1-PWWP (human); assay: NMR methyl-TROSY line shape fit; settings: 308 K; 1:2 nucleosome:PWWP model; koff 500 s-1; histone H3KC36me3 (methyl-lysine analogue); EMSA: 0.2X TBE, 4 C, 1.5 or 3 pmol nucleosome in 8 uL, up to 3 molar equivalents of protein, native 5% gel; NMR: 293 K (DNA titration), 308 K (nucleosome …)
[4] = target: PSIP1-PWWP domain (residues 3 to 100, GST removed by thrombin) (human) (UniProt O75475); assay: NMR titration; 1H-15N HSQC of 0.3 mM PWWP, peptide added; 20 mM NaPi pH 7.0, 100 mM NaCl, 293 K, 600 MHz; chemical shift perturbation curves fitted in fast exchange
PSIP1-PWWP domain (residues 3 to 100, GST removed by thrombin) (human), sequence (O75475 3-100): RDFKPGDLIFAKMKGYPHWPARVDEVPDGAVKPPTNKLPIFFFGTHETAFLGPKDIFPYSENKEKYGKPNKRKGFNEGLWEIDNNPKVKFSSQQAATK

[5] = target: H3KC36me3 nucleosomes (recombinant MLA nucleosomes reconstituted on 601 DNA) (Drosophila) (UniProt P02299)
[6] = tested on: PSIP1-PWWP (human); assay: NMR titration (1H-15N HSQC CSP); settings: EMSA: 0.2X TBE, 4 C, 1.5 or 3 pmol nucleosome in 8 uL, up to 3 molar equivalents of protein, native 5% gel; NMR: 293 K (DNA titration), 308 K (nucleosome …)

GST-PWWP (PSIP1-PWWP domain, residues 3 to 100, GST fusion), sequence (O75475 3-100): as above
PSIP1-PWWP domain (residues 3 to 100, GST removed by thrombin), sequence (O75475 3-100): as above

Substance: GST-PWWP (PSIP1-PWWP domain, residues 3 to 100, GST fusion) (from UniProt O75475 3-100) (domain or fragment)
- Kd [1]: 0.5 µM

Substance: H3KC36me3 MLA nucleosome on 601 DNA
- Kd [2]: 0.5 µM
- Kd [3]: 1.5 µM

- Kd [4]: 11000 µM
Substance: H3KC36me3 peptide (NMR titration)

- Kd [5]: 1.5 µM
Substance: PSIP1-PWWP domain (residues 3 to 100, GST removed by thrombin) (from UniProt O75475 3-100) (domain or fragment)

Substance: SRE-DNA dsDNA fragment
- Kd [6]: 150 µM
